According to the supplement of paper PMC5998384:

Key:
HeLa Kyoto [1] = experiment: solubility in G1/S (NP-40 vs SDS abundance) (log2 ratio); higher = more soluble; conditions: cell cycle stage: G1/S
HeLa Kyoto [2] = experiment: melting temperature (median over replicates), in situ; higher = more thermally stable
HeLa Kyoto [3] = experiment: thermal stability score vs G1/S (z-score of summed log2 fold changes over temperatures); higher = more thermally stable than in G1/S
HeLa Kyoto [4] = experiment: solubility change mitosis vs G1/S (difference of NP-40 vs SDS log2 ratios) (log2 ratio difference); higher = more soluble in mitosis
[5] = cell cycle stage: early G1 (4.5 h after nocodazole release)
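Throughout, for melting temperature (median over replicates), in situ: HeLa Kyoto cells synchronized by double thymidine or nocodazole block, proteins quantified by TMT10plex mass spectrometry, three independent biological replicates.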
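Throughout, for solubility change mitosis vs G1/S (difference of NP-40 vs SDS log2 ratios): synchronized HeLa Kyoto cells (double thymidine block for G1/S, nocodazole release for mitosis), protein amounts in NP-40 versus SDS lysates quantified by mass spectrometry, three biological replicates.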
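Throughout, for solubility in G1/S (NP-40 vs SDS abundance): HeLa Kyoto cells arrested at G1/S by double thymidine block, proteins quantified by TMT10plex mass spectrometry in mild NP-40 versus SDS extracts, three biological replicates.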
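Throughout, for thermal stability score vs G1/S (z-score of summed log2 fold changes over temperatures): synchronized HeLa Kyoto cells, proteins quantified by TMT10plex mass spectrometry, three biological replicates, mitosis taken 0.5 h after nocodazole release, G1/S directly after double thymidine block.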

Sequence of RSBN1 (chain, as listed by the source): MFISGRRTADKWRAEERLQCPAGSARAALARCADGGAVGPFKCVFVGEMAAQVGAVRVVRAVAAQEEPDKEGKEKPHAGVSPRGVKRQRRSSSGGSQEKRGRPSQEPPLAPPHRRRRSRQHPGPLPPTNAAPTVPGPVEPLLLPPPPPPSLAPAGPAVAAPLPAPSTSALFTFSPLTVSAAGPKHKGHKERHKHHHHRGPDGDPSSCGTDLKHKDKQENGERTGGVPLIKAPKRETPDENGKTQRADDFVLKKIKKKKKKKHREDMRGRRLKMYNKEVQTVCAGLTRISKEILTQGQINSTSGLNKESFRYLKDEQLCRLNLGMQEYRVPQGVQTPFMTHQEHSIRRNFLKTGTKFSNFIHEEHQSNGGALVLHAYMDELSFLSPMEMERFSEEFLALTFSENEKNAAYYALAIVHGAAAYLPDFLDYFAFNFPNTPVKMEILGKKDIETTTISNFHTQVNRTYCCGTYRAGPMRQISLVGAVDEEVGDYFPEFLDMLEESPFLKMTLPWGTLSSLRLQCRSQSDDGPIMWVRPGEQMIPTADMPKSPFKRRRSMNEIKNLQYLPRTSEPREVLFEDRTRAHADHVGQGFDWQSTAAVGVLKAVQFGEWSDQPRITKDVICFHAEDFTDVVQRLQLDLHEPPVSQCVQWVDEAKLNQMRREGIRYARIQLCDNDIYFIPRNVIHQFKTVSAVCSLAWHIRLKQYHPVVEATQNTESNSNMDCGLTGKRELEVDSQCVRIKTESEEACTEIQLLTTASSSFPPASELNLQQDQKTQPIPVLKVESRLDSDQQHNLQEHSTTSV
Sequence of THOP1 (chain, as listed by the source): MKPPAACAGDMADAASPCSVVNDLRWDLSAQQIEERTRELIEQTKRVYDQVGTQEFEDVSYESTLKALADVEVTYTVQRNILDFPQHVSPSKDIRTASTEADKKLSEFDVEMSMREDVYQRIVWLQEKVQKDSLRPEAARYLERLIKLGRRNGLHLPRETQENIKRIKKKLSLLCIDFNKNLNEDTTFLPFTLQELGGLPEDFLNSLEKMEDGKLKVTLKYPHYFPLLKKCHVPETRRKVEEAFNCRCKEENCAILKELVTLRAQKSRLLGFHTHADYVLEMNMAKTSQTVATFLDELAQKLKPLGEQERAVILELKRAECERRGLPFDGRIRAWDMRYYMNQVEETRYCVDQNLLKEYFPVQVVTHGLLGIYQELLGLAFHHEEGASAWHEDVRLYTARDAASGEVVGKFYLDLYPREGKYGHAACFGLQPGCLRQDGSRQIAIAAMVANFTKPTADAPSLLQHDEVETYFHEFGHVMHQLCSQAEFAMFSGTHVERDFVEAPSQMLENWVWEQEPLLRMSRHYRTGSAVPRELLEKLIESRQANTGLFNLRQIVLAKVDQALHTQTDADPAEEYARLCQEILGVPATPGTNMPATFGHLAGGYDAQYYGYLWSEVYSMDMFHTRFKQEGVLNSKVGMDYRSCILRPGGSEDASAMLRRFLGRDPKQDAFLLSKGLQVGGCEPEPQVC

MALYQRWRCLRLQGLQACRLHTAVVSTPPRWLAERLGLFEELWAAQVKRLASMAQKEPRTIKISLPGGQKIDAVAWNTTPYQLARQISSTLADTAVAAQVNGEPYDLERPLETDSDLRFLTFDSPEGKAVFWHSSTHVLGAAAEQFLGAVLCRGPSTEYGFYHDFFLGKERTIRGSELPVLERICQELTAAARPFRRLEASRDQLRQLFKDNPFKLHLIEEKVTGPTATVYGCGTLVDLCQGPHLRHTGQIGGLKLLSNSSSLWRSSGAPETLQRVSGISFPTTELLRVWEAWREEAELRDHRRIGKEQELFFFHELSPGSCFFLPRGTRVYNALVAFIRAEYAHRGFSEVKTPTLFSTKLWEQSGHWEHYQEDMFAVQPPGSDRPPSSQSDDSTRHITDTLALKPMNCPAHCLMFAHRPRSWRELPLRLADFGALHRAEASGGLGGLTRLRCFQQDDAHIFCTTDQLEAEIQSCLDFLRSVYAVLGFSFRLALSTRPSGFLGDPCLWDQAEQVLKQALKEFGEPWDLNSGDGAFYGPKIDVHLHDALGRPHQCGTIQLDFQLPLRFDLQYKGQAGALERPVLIHRAVLGSVERLLGVLAESCGGKWPLWLSPFQVVVIPVGSEQEEYAKEAQQSLRAAGLVSDLDADSGLTLSRRIRRAQLAHYNFQFVVGQKEQSKRTVNIRTRDNRRLGEWDLPEAVQRLVELQNTRVPNAEEIF [TARS2]
solubility in G1/S (log2) (HeLa Kyoto [1]): 0.0817 | melting temperature (HeLa Kyoto [2]; cell cycle stage: G1/S): 51.4 °C | melting temperature (HeLa Kyoto [2]; cell cycle stage: mitosis): 50.8 °C | thermal stability score (HeLa Kyoto [3]; [5]): -1.35 | thermal stability score (HeLa Kyoto [3]; cell cycle stage: mitosis): -0.229 | solubility change mitosis (log2) (HeLa Kyoto [4]): -0.134

MPEINTNHLDKQQVQLLAEMCILIDENDNKIGAETKKNCHLNENIEKGLLHRAFSVFLFNTENKLLLQQRSDAKITFPGCFTNTCCSHPLSNPAELEESDALGVRRAAQRRLKAELGIPLEEVPPEEINYLTRIHYKAQSDGIWGEHEIDYILLVRKNVTLNPDPNEIKSYCYVSKEELKELLKKAASGEIKITPWFKIIAATFLFKWWDNLNHLNQFVDHEKIYRM [IDI1]
solubility in G1/S (log2) (HeLa Kyoto [1]): 0.145 | melting temperature (HeLa Kyoto [2]; cell cycle stage: G1/S): 54.1 °C | melting temperature (HeLa Kyoto [2]; cell cycle stage: mitosis): 53.4 °C | thermal stability score (HeLa Kyoto [3]; [5]): 0.472 | thermal stability score (HeLa Kyoto [3]; cell cycle stage: mitosis): -0.519 | solubility change mitosis (log2) (HeLa Kyoto [4]): 0.0595

MDRNPSPPPPGRDKEEEEEVAGGDCIGSTVYSKHWLFGVLSGLIQIVSPENTKSSSDDEEQLTELDEEMENEICRVWDMSMDEDVALFLQEFNAPDIFMGVLAKSKCPRLREICVGILGNMACFQEICVSISSDKNLGQVLLHCLYDSDPPTLLETSRLLLTCLSQAEVASVWVERIQEHPAIYDSICFIMSSSTNVDLLVKVGEVVDKLFDLDEKLMLEWVRNGAAQPLDQPQEESEEQPVFRLVPCILEAAKQVRSENPEWLDVYMHILQLLTTVDDGIQAIVHCPDTGKDIWNLLFDLVCHEFCQSDDPPIILQEQKTVLASVFSVLSAIYASQTEQEYLKIEKVDLPLIDSLIRVLQNMEQCQKKPENSAESNTEETKRTDLTQDDFHLKILKDILCEFLSNIFQALTKETVAQGVKEGQLSKQKCSSAFQNLLPFYSPVVEDFIKILREVDKALADDLEKNFPSLKVQT [SAAL1]
solubility in G1/S (log2) (HeLa Kyoto [1]): 0.294 | melting temperature (HeLa Kyoto [2]; cell cycle stage: G1/S): 52.3 °C | melting temperature (HeLa Kyoto [2]; cell cycle stage: mitosis): 50.6 °C | thermal stability score (HeLa Kyoto [3]; [5]): 0.137 | thermal stability score (HeLa Kyoto [3]; cell cycle stage: mitosis): 0.212 | solubility change mitosis (log2) (HeLa Kyoto [4]): 0.00183

RSBN1
solubility in G1/S (log2) (HeLa Kyoto [1]): -0.345 | melting temperature (HeLa Kyoto [2]; cell cycle stage: mitosis): 53.1 °C | thermal stability score (HeLa Kyoto [3]; [5]): -1.37 | thermal stability score (HeLa Kyoto [3]; cell cycle stage: mitosis): -1.2 | solubility change mitosis (log2) (HeLa Kyoto [4]): 0.0741

THOP1
solubility in G1/S (log2) (HeLa Kyoto [1]): 0.0611 | melting temperature (HeLa Kyoto [2]; cell cycle stage: G1/S): 56.3 °C | melting temperature (HeLa Kyoto [2]; cell cycle stage: mitosis): 56.1 °C | thermal stability score (HeLa Kyoto [3]; [5]): -1.55 | thermal stability score (HeLa Kyoto [3]; cell cycle stage: mitosis): -2.28 | solubility change mitosis (log2) (HeLa Kyoto [4]): -0.109

MESKALLVLTLAVWLQSLTASRGGVAAADQRRDFIDIESKFALRTPEDTAEDTCHLIPGVAESVATCHFNHSSKTFMVIHGWTVTGMYESWVPKLVAALYKREPDSNVIVVDWLSRAQEHYPVSAGYTKLVGQDVARFINWMEEEFNYPLDNVHLLGYSLGAHAAGIAGSLTNKKVNRITGLDPAGPNFEYAEAPSRLSPDDADFVDVLHTFTRGSPGRSIGIQKPVGHVDIYPNGGTFQPGCNIGEAIRVIAERGLGDVDQLVKCSHERSIHLFIDSLLNEENPSKAYRCSSKEAFEKGLCLSCRKNRCNNLGYEINKVRAKRSSKMYLKTRSQMPYKVFHYQVKIHFSGTESETHTNQAFEISLYGTVAESENIPFTLPEVSTNKTYSFLIYTEVDIGELLMLKLKWKSDSYFSWSDWWSSPGFAIQKIRVKAGETQKKVIFCSREKVSHLQKGKAPAVFVKCHDKSLNKKSG [LPL]
solubility in G1/S (log2) (HeLa Kyoto [1]): -0.0225 | melting temperature (HeLa Kyoto [2]; cell cycle stage: G1/S): 53.9 °C | melting temperature (HeLa Kyoto [2]; cell cycle stage: mitosis): 53.7 °C | thermal stability score (HeLa Kyoto [3]; [5]): -1.96 | thermal stability score (HeLa Kyoto [3]; cell cycle stage: mitosis): -2.52 | solubility change mitosis (log2) (HeLa Kyoto [4]): -0.028
